Test results from the Immune Epitope Database (IEDB).

Columns and labels:
HLA-B*39:01 = assay: IEDB peptide-MHC binding, purified MHC/competitive/fluorescence; filed as Kd, often an IC50 or EC50 that approximates it; ≥ and ≤ were set here for values at or beyond the usual limits of such assays
HLA-B*15:17 = assay: as above
HLA-A*69:01 = assay: as above
HLA-B*46:01 = assay: as above
HLA-B*57:01 = assay: as above; conditions: source organism: Orthohantavirus tulaense
HLA-A*26:01 = assay: as above
HLA-B*27:03 = assay: as above
HLA-B*51:01 = assay: as above
HLA-A*02:01 = assay: as above
HLA-B*18:01 = assay: as above; conditions: source organism: Orthohantavirus tulaense
HLA-A*01:01 = assay: as above
HLA-A*02:19 [1] = assay: IEDB peptide-MHC binding, purified MHC/direct/fluorescence; filed as Kd, often an IC50 or EC50 that approximates it; ≥ and ≤ were set here for values at or beyond the usual limits of such assays; conditions: source organism: Orthohantavirus tulaense
HLA-A*23:01 = assay: as above; conditions: source organism: Orthohantavirus tulaense
HLA-A*68:02 [2] = assay: as above; conditions: source organism: Orthohantavirus tulaense
HLA-A*02:16 [3] = assay: as above; conditions: source organism: Orthohantavirus tulaense
HLA-A*03:01 [4] = assay: as above; conditions: source organism: Orthohantavirus tulaense
HLA-A*02:11 [5] = assay: as above; conditions: source organism: Orthohantavirus tulaense
HLA-A*02:12 [6] = assay: as above; conditions: source organism: Orthohantavirus tulaense
HLA-A*29:02 [7] = assay: as above; conditions: source organism: Orthohantavirus tulaense
HLA-A*02:03 [8] = assay: as above; conditions: source organism: Orthohantavirus tulaense
HLA-A*24:03 [9] = assay: as above; conditions: source organism: Orthohantavirus tulaense
HLA-B*35:01 = assay: IEDB peptide-MHC binding, purified MHC/competitive/fluorescence; filed as Kd, often an IC50 or EC50 that approximates it; ≥ and ≤ were set here for values at or beyond the usual limits of such assays
HLA-B*15:01 [10] = assay: IEDB peptide-MHC binding, purified MHC/direct/fluorescence; filed as Kd, often an IC50 or EC50 that approximates it; ≥ and ≤ were set here for values at or beyond the usual limits of such assays; conditions: source organism: Mycobacterium tuberculosis variant bovis
HLA-A*02:19 [11] = assay: IEDB peptide-MHC binding, purified MHC/competitive/fluorescence; filed as Kd, often an IC50 or EC50 that approximates it; ≥ and ≤ were set here for values at or beyond the usual limits of such assays; conditions: source organism: Homo sapiens
HLA-A*68:02 [12] = assay: as above; conditions: source organism: Homo sapiens
HLA-A*02:16 [13] = assay: as above; conditions: source organism: Homo sapiens
HLA-A*03:01 [14] = assay: as above; conditions: source organism: Homo sapiens
HLA-A*02:11 [15] = assay: as above; conditions: source organism: Homo sapiens
HLA-A*02:12 [16] = assay: as above; conditions: source organism: Homo sapiens
HLA-A*29:02 [17] = assay: as above; conditions: source organism: Homo sapiens
HLA-A*02:03 [18] = assay: as above; conditions: source organism: Homo sapiens
HLA-B*15:01 [19] = assay: as above
HLA-A*24:03 [20] = assay: as above; conditions: source organism: Homo sapiens
HLA-B*40:01 = assay: as above
HLA-B*08:03 = assay: IEDB peptide-MHC binding, purified MHC/direct/fluorescence; filed as Kd, often an IC50 or EC50 that approximates it; ≥ and ≤ were set here for values at or beyond the usual limits of such assays; conditions: source organism: Listeria monocytogenes serotype 4b str. H7858
HLA-B*08:02 = assay: as above; conditions: source organism: Listeria monocytogenes serotype 4b str. H7858
HLA-B*08:01 [21] = assay: as above; conditions: source organism: Listeria monocytogenes serotype 4b str. H7858
HLA-B*08:01 [22] = assay: IEDB peptide-MHC binding, purified MHC/competitive/fluorescence; filed as Kd, often an IC50 or EC50 that approximates it; ≥ and ≤ were set here for values at or beyond the usual limits of such assays; conditions: source organism: Shigella flexneri 5 str. 8401
[23] = source organism: Orthohantavirus tulaense
[24] = source organism: Escherichia coli
[25] = source organism: Shigella flexneri 5 str. 8401

With VVDALRNIY the Kd (HLA-B*39:01; [23]) was ≥ 20 µM, the Kd (HLA-B*15:17; [23]) was ≥ 20 µM and the Kd (HLA-A*69:01; [23]) was ≥ 20 µM. For the same sequence, the Kd (HLA-B*46:01; [23]) was ≥ 20 µM, the Kd (HLA-B*57:01) was ≥ 20 µM and the Kd (HLA-A*26:01; [23]) was ≥ 20 µM. The Kd (HLA-B*27:03; [23]) was ≥ 20 µM, the Kd (HLA-B*51:01; [23]) was ≥ 20 µM and the Kd (HLA-A*02:01; [23]) was ≥ 20 µM. The Kd (HLA-B*18:01) was ≥ 20 µM, the Kd (HLA-A*01:01; [23]) was 6.3 nM and the Kd (HLA-A*02:19 [1]) was ≥ 20 µM. For the same sequence, the Kd (HLA-A*23:01) was ≥ 20 µM, the Kd (HLA-A*68:02 [2]) was ≥ 20 µM and the Kd (HLA-A*02:16 [3]) was ≥ 20 µM. The Kd (HLA-A*03:01 [4]) was ≥ 20 µM, the Kd (HLA-A*02:11 [5]) was ≥ 20 µM and the Kd (HLA-A*02:12 [6]) was ≥ 20 µM. For the same sequence, the Kd (HLA-A*29:02 [7]) was ≥ 20 µM, the Kd (HLA-A*02:03 [8]) was ≥ 20 µM and the Kd (HLA-A*24:03 [9]) was ≥ 20 µM.
In the case of QATAQAAAY, the Kd (HLA-B*35:01; source organism: Mycobacterium tuberculosis C) is reported as 14.5 nM and the Kd (HLA-B*15:01 [10]) is reported as 6.05 µM.
Work on ELNITSATY yielded a Kd (HLA-B*35:01; source organism: Mycobacterium tuberculosis variant bovis) of 18.2 nM and a Kd (HLA-B*15:01 [10]) of 0.459 µM.
With SSDLRSWTF the Kd (HLA-B*39:01; source organism: Homo sapiens) was ≥ 20 µM, the Kd (HLA-B*15:17; source organism: Homo sapiens) was ≥ 20 µM and the Kd (HLA-A*69:01; source organism: Homo sapiens) was ≥ 20 µM. For the same sequence, the Kd (HLA-A*02:19 [11]) was ≥ 20 µM, the Kd (HLA-A*68:02 [12]) was ≥ 20 µM and the Kd (HLA-A*02:16 [13]) was ≥ 20 µM. For the same sequence, the Kd (HLA-B*46:01; source organism: Homo sapiens) was ≥ 20 µM, the Kd (HLA-A*26:01; source organism: Homo sapiens) was ≥ 20 µM and the Kd (HLA-A*03:01 [14]) was ≥ 20 µM. The Kd (HLA-B*27:03; source organism: Homo sapiens) was ≥ 20 µM, the Kd (HLA-A*02:11 [15]) was ≥ 20 µM and the Kd (HLA-B*51:01; source organism: Homo sapiens) was ≥ 20 µM. The Kd (HLA-A*02:01; source organism: Homo sapiens) was ≥ 20 µM, the Kd (HLA-A*01:01; source organism: Homo sapiens) was 538 nM and the Kd (HLA-A*02:12 [16]) was ≥ 20 µM. The Kd (HLA-A*29:02 [17]) was ≥ 20 µM, the Kd (HLA-A*02:03 [18]) was ≥ 20 µM and the Kd (HLA-B*15:01 [19]; source organism: Homo sapiens) was ≥ 20 µM. The Kd (HLA-A*24:03 [20]) was ≥ 20 µM.
For LQEEMAETL, the Kd (HLA-B*39:01; [24]) was 0.108 µM, the Kd (HLA-B*15:01 [19]; [24]) was ≥ 20 µM and the Kd (HLA-B*40:01; [24]) was 866 nM.
QMKRRILSF was tested, and the Kd (HLA-B*08:03) was 95 nM, the Kd (HLA-B*08:02) was 57 nM and the Kd (HLA-B*08:01 [21]) was 9 nM.
Sequence LPRRLQLLF has a Kd (HLA-B*35:01; [25]) of 2.9 nM, a Kd (HLA-B*51:01; [25]) of 2.64 µM and a Kd (HLA-B*08:01 [22]) of 4 µM.
Work on REWSGLNYL yielded a Kd (HLA-B*40:01; source organism: Salmonella enterica subsp. enterica serovar Typhi) of 3.3 nM.
With EEISSIISL the Kd (HLA-B*40:01; source organism: Bacillus anthracis str. A2012) was 2.3 nM.
